Measurements as given in the RNAGym collection of RNA variant scans (doi:10.7554/elife.80360).

B1: Hairpin Ribozyme (parent)
chain: GUCCUCUUUCACGUGCGCGUGAAAGAGAGAAGUGAACCAGAGAAACACACGUUGUGGUAUAUUACCUGGUA

Variants of: B1
Experiment: self-cleavage, relative activity (ratio to wild type); higher = more cleavage; co-transcriptional

| Variant | self-cleavage |
| --- | --- |
| A36G G40U | 0.0848 |
| A36G G40A | 0.349 |
| A36G U62C | 0.328 |
| C37U C38U | 0.201 |
| C37U C38G | 0.0604 |
| C37A A39G | 0.181 |
| A39C C48A | 0.171 |
| C37U A43G | 0.146 |
| C38A A64C | 0.103 |
| C38A A64U | 0.179 |
| C38A A64G | 0.108 |
| A36G G69A | 0.414 |
| A36G G69U | 0.237 |
| C37U A64C | 0.205 |
| A36G G68C | 0.211 |
| A36U C37G | 0.149 |
| C37G C66A | 0.207 |
| C37U G40A | 0.183 |
| C37U G40U | 0.178 |
| A36G A45G | 0.28 |
| A36G A45U | 0.219 |
| C38G U62A | 0.127 |
| C37G A61G | 0.155 |
| A36G C66A | 0.0924 |

| Variant | self-cleavage |
| --- | --- |
| A39C G68U | 0.229 |
| A39C G68A | 0.215 |
| C38U U67C | 0.121 |
| C37A G68A | 0.302 |
| A39C G51A | 0.751 |
| A39C A47G | 0.172 |
| A36C C50U | 0.222 |
| A36U U55G | 0.163 |
| A36U U55C | 0.124 |
| C38A C66A | 0.216 |
| C38A C66U | 0.0169 |
| A36C G57U | 0.264 |
| C38A U67G | 0.137 |
| C38A U67A | 0.124 |
| C37U U67C | 0.142 |
| C37U U67G | 0.234 |
| A36U C46U | 0.31 |
| C37U C48G | 0.0435 |
| C37G A39C | 0.163 |
| C38G G57U | 0.116 |
| A36C G51C | 0.562 |
| A36G A49U | 0.204 |
| C37A A44G | 0.208 |
| C37A A44C | 0.203 |

| Variant | self-cleavage |
| --- | --- |
| C37A A44U | 0.109 |
| C37G U58G | 0.136 |
| A39C C50G | 0.0993 |
| A39C C50A | 0.165 |
| C37U U52A | 0.672 |
| C38U A61G | 0.26 |
| C38U A61C | 0.197 |
| C38A U58A | 0.211 |
| C38A A49C | 0.11 |
| C38A A49G | 0.182 |
| A36U U63A | 0.207 |
| A36U U63C | 0.172 |
| A36U U63G | 0.165 |
| A36U G54A | 0.212 |
| A36U G54C | 0.278 |
| A36C C37G | 0.215 |
| A36U A49U | 0.124 |
| C37A A47U | 0.19 |
| C37A A47C | 0.108 |
| A36C A71G | 0.303 |
| A39G A43G | 0.0922 |
| A39C U70C | 0.247 |
| C38A U53C | 0.228 |
| C38A U53A | 0.215 |

| Variant | self-cleavage |
| --- | --- |
| C38U U58G | 0.447 |
| A36G G51U | 0.97 |
| C37G C65G | 0.225 |
| C38A A44G | 0.144 |
| C38A A44U | 0.118 |
| A36U U60C | 0.804 |
| A36U U60G | 0.246 |
| A36G A71G | 0.982 |
| C38U A64C | 0.233 |
| C38U A64G | 0.306 |
| A36U U67G | 0.177 |
| A36U U67A | 0.235 |
| C37G A49C | 0.348 |
| A36G U52C | 1.24 |
| A36G A43C | 0.228 |
| A36G A43U | 0.0504 |
| A36U A59U | 0.132 |
| C38G G51C | 0.147 |
| C37G U52G | 0.377 |
| A36G G56U | 0.183 |
| C38A A39G | 0.136 |
| C38A A39C | 0.0755 |
| C38G G40C | 0.0961 |
| C38U G68A | 0.931 |

| Variant | self-cleavage |
| --- | --- |
| C38U G68U | 0.605 |
| C37G U70G | 0.405 |
| A39C G54U | 0.103 |
| A39C A61G | 0.131 |
| C38A A59G | 0.118 |
| C38A A59U | 0.134 |
| A39C A49G | 0.208 |
| C37A U70C | 0.438 |
| C37A U70A | 0.368 |
| C38U A45U | 0.113 |
| C38G U67A | 0.224 |
| C37A A43C | 0.0917 |
| C37A A43U | 0.15 |
| A36G U58G | 0.952 |
| C38A G68A | 0.148 |
| A39C U55G | 0.205 |
| A36C U62A | 0.0722 |
| C37U A59G | 0.152 |
| C37U A59C | 0.162 |
| C38A A41G | 0.51 |
| C37G G57C | 0.21 |
| A39C U58A | 0.231 |
| A39C U58G | 0.315 |
| C38A G42U | 0.112 |

| Variant | self-cleavage |
| --- | --- |
| C38A G42C | 0.0881 |
| C38G G54A | 0.105 |
| C38U A43C | 0.0947 |
| A39C A45G | 0.105 |
| A36C U63A | 0.0749 |
| A39C A43G | 0.085 |
| A39G | 0.299 |
| A39C | 0.539 |
| C37A U62G | 0.127 |
| C37U A71U | 0.557 |
| C37U A71C | 0.93 |
| C37U A49U | 0.211 |
| C37G A44U | 0.118 |
| C37G A44G | 0.185 |
| C38A G51C | 0.223 |
| C38G U70C | 0.157 |
| C38U C66G | 0.255 |
| A36U C38G | 0.0875 |
| A36G C37U | 0.0788 |
| A36C G68U | 0.213 |
| A36C G68C | 0.153 |
| A36C G68A | 0.193 |
| C37A C50G | 0.128 |
| C37A C50A | 0.124 |

| Variant | self-cleavage |
| --- | --- |
| C37A U63C | 0.131 |
| C37A U63A | 0.163 |
| C37G G42U | 0.0921 |
| C38A C48G | 0.122 |
| C38A C48A | 0.14 |
| A39C U52G | 0.267 |
| C38U C50U | 0.249 |
| A36G C65A | 0.73 |
| A36U U70A | 0.775 |
| A36U U70G | 0.665 |
| A36U U70C | 0.473 |
| C38A A47U | 0.0951 |
| C38A A47C | 0.146 |
| C38G A59C | 0.12 |
| A39C U63G | 0.122 |
| C37U A44C | 0.1 |
| C38U G40A | 0.203 |
| A36U U58C | 0.719 |
| A36U U58G | 0.417 |
| A36U G51U | 0.648 |
| C38U G69U | 0.283 |
| C38A G69C | 0.168 |
| C37G C48U | 0.144 |
